The results in this text go back to IntAct's records for PubMed 19379695.

Sequences and labels used below:
B1: E3 ubiquitin-protein ligase SMURF2 (Mus musculus), A2A5Z6 (parent)
chain: MSNPGGRRNGPVKLRLTVLCAKNLVKKDFFRLPDPFAKVVVDGSGQCHSTDTVKNTLDPKWNQHYDLYIGKSDSVTISVWNHKKIHKKQGAGFLGCVRLLSNAINRLKDTGYQRLDLCKLGPNDNDTVRGQIVVSLQSRDRIGTGGQVVDCSRLFDNDLPDGWEERRTASGRIQYLNHITRTTQWERPTRPASEYSSPGRPLSCFVDENTPITGTNGATCGHSSDPRLAERRVRSQRHRNYMSRTHLHTPPDLPEGYEQRTTQQGQVYFLHTQTGVSTWHDPRVPRDLSNINCEELGPLPPGWEIRNTATGRVYFVDHNNRTTQFTDPRLSANLHLVLNRQNQLKDQQQQQVVPLCPDDTECLTVPRYKRDLVQKLKILRQELSQQQPQAGHCRIEVSREEIFEESYRQVMKMRPKDLWKRLMIKFRGEEGLDYGGVAREWLYLLSHEMLNPYYGLFQYSRDDIYTLQINPDSAVNPEHLSYFHFVGRIMGMAVFHGHYIDGGFTLPFYKQLLGKSITLDDMELVDPDLHNSLVWILENDITGVLDHTFCVEHNAYGEIIQHELKPNGKSIPVTEENKKEYVRLYVNWRFLRGIEAQFLALQKGFNEVIPQHLLKTFDEKELELIICGLGKIDVSDWKVNTRLKHCTPDSNVVKWFWKAVEFFDEERRARLLQFVTGSSRVPLQGFKALQGAAGPRLFTIHQIDACTNNLPKAHTCFNRIDIPPYESYEKLYEKLLTAIEETCGFAVE
partner: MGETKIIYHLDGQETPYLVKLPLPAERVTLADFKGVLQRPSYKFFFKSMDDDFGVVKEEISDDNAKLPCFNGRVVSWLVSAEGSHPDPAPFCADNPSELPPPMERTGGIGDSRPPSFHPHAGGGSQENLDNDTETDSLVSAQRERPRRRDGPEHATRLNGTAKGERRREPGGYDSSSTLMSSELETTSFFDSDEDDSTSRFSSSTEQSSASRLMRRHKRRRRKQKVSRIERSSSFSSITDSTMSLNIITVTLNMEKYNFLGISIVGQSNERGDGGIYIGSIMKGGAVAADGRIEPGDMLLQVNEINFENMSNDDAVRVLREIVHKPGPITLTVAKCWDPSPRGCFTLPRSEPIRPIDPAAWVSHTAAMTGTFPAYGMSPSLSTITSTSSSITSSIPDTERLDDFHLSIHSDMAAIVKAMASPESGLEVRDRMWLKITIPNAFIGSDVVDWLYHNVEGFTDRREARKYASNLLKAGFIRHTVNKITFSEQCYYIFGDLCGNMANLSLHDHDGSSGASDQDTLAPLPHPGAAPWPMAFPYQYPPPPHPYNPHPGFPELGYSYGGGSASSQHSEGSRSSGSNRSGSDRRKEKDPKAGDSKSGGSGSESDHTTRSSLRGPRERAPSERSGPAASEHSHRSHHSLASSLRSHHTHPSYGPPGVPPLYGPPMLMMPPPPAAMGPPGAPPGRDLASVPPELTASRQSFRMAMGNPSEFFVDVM
B2: E3 ubiquitin-protein ligase SMURF2 (Mus musculus), A2A5Z6 (parent)
chain: B1 chain
B3: Segment polarity protein dishevelled homolog DVL-2 (Homo sapiens), O14641 (parent)
chain: MAGSSTGGGGVGETKVIYHLDEEETPYLVKIPVPAERITLGDFKSVLQRPAGAKYFFKSMDQDFGVVKEEISDDNARLPCFNGRVVSWLVSSDNPQPEMAPPVHEPRAELAPPAPPLPPLPPERTSGIGDSRPPSFHPNVSSSHENLEPETETESVVSLRRERPRRRDSSEHGAGGHRTGGPSRLERHLAGYESSSTLMTSELESTSLGDSDEEDTMSRFSSSTEQSSASRLLKRHRRRRKQRPPRLERTSSFSSVTDSTMSLNIITVTLNMEKYNFLGISIVGQSNERGDGGIYIGSIMKGGAVAADGRIEPGDMLLQVNDMNFENMSNDDAVRVLRDIVHKPGPIVLTVAKCWDPSPQAYFTLPRNEPIQPIDPAAWVSHSAALTGTFPAYPGSSSMSTITSGSSLPDGCEGRGLSVHTDMASVTKAMAAPESGLEVRDRMWLKITIPNAFLGSDVVDWLYHHVEGFPERREARKYASGLLKAGLIRHTVNKITFSEQCYYVFGDLSGGCESYLVNLSLNDNDGSSGASDQDTLAPLPGATPWPLLPTFSYQYPAPHPYSPQPPPYHELSSYTYGGGSASSQHSEGSRSSGSTRSDGGAGRTGRPEERAPESKSGSGSESEPSSRGGSLRRGGEASGTSDGGPPPSRGSTGGAPNLRAHPGLHPYGPPPGMALPYNPMMVVMMPPPPPPVPPAVQPPGAPPVRDLGSVPPELTASRQSFHMAMGNPSEFFVDVM
B4: E3 ubiquitin-protein ligase SMURF2 (Mus musculus), A2A5Z6 (parent)
chain: B1 chain
partner: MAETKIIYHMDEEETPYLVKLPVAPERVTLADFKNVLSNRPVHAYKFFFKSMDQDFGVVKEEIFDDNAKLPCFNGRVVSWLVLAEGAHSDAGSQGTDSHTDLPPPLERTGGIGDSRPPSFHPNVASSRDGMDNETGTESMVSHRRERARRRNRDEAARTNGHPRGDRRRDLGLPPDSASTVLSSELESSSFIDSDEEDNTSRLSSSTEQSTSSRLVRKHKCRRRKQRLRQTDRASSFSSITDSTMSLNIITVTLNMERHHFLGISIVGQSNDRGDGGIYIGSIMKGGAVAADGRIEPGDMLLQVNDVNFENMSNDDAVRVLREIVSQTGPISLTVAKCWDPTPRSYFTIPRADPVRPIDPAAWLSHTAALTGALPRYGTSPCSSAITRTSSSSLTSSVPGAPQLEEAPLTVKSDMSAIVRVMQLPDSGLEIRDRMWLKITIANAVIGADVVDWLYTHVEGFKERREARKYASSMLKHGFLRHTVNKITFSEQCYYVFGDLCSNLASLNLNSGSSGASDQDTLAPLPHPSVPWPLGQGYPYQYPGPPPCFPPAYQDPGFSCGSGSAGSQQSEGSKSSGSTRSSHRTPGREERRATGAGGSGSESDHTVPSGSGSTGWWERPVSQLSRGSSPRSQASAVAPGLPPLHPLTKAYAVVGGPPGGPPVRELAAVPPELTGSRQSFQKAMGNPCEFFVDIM
B5: E3 ubiquitin-protein ligase SMURF2 (Mus musculus), A2A5Z6 (parent)
chain: B1 chain
partner: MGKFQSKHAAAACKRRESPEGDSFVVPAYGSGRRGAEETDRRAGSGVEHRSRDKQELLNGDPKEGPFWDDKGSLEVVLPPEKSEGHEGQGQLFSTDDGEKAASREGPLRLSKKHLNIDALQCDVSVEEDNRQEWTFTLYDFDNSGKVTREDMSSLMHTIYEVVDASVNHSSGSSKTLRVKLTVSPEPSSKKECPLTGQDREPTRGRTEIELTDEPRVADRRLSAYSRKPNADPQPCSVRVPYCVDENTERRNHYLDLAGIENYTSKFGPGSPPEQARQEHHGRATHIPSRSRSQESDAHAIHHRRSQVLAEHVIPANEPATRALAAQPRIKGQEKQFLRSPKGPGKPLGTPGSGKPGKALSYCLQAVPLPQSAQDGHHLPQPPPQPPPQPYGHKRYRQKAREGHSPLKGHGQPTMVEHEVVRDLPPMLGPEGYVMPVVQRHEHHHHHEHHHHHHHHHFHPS
B6: E3 ubiquitin-protein ligase SMURF2 (Mus musculus), A2A5Z6 (parent)
chain: B1 chain
partner: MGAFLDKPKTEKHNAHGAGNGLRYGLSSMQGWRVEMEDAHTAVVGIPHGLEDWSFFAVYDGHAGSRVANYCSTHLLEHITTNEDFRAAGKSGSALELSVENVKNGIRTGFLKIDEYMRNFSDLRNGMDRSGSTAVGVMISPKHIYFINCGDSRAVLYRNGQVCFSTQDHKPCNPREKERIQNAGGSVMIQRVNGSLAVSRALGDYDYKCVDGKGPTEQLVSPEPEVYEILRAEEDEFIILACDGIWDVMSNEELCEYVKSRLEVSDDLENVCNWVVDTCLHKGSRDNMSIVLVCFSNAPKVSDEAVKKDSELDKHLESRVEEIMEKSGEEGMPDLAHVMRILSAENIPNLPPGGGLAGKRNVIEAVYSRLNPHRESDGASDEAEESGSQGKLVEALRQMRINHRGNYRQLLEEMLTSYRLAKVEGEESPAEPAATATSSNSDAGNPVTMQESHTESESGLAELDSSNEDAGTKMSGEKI
B7: E3 ubiquitin-protein ligase SMURF2 (Mus musculus), A2A5Z6 (parent)
chain: B1 chain
partner: B3 chain

The variants in the first experiment derive from B1. The settings on record: with dvl3_human DVL3, Q92997.
Consider C716A, for which the “effect of a mutation on the interaction” value was “decreasing interaction”.

Another experiment covers variants of B2. The settings on record: with elav1_human ELAVL1, Q15717.
Chain of elav1_human ELAVL1, Q15717 (Q15717 whole entry): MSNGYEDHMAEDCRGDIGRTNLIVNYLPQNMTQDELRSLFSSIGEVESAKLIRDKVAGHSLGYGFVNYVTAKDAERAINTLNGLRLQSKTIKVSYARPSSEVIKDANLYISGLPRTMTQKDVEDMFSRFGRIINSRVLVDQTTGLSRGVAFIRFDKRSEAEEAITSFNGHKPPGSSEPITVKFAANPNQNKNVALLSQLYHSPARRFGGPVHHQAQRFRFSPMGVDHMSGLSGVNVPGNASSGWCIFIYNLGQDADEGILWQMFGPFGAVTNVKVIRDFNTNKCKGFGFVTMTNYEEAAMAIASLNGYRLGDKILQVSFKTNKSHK
Consider C716A, for which the “effect of a mutation on the interaction” value is on record as “decreasing interaction”.

The next experiment covers variants of B2. The settings on record: with rac1_mouse Rac1, P63001.
As for C716A, the “effect of a mutation on the interaction” value was “decreasing interaction”.

In a further experiment the parent is B2. Conditions: with tp53b_mouse Tp53bp1, P70399.
Chain of tp53b_mouse Tp53bp1, P70399 (P70399 whole entry): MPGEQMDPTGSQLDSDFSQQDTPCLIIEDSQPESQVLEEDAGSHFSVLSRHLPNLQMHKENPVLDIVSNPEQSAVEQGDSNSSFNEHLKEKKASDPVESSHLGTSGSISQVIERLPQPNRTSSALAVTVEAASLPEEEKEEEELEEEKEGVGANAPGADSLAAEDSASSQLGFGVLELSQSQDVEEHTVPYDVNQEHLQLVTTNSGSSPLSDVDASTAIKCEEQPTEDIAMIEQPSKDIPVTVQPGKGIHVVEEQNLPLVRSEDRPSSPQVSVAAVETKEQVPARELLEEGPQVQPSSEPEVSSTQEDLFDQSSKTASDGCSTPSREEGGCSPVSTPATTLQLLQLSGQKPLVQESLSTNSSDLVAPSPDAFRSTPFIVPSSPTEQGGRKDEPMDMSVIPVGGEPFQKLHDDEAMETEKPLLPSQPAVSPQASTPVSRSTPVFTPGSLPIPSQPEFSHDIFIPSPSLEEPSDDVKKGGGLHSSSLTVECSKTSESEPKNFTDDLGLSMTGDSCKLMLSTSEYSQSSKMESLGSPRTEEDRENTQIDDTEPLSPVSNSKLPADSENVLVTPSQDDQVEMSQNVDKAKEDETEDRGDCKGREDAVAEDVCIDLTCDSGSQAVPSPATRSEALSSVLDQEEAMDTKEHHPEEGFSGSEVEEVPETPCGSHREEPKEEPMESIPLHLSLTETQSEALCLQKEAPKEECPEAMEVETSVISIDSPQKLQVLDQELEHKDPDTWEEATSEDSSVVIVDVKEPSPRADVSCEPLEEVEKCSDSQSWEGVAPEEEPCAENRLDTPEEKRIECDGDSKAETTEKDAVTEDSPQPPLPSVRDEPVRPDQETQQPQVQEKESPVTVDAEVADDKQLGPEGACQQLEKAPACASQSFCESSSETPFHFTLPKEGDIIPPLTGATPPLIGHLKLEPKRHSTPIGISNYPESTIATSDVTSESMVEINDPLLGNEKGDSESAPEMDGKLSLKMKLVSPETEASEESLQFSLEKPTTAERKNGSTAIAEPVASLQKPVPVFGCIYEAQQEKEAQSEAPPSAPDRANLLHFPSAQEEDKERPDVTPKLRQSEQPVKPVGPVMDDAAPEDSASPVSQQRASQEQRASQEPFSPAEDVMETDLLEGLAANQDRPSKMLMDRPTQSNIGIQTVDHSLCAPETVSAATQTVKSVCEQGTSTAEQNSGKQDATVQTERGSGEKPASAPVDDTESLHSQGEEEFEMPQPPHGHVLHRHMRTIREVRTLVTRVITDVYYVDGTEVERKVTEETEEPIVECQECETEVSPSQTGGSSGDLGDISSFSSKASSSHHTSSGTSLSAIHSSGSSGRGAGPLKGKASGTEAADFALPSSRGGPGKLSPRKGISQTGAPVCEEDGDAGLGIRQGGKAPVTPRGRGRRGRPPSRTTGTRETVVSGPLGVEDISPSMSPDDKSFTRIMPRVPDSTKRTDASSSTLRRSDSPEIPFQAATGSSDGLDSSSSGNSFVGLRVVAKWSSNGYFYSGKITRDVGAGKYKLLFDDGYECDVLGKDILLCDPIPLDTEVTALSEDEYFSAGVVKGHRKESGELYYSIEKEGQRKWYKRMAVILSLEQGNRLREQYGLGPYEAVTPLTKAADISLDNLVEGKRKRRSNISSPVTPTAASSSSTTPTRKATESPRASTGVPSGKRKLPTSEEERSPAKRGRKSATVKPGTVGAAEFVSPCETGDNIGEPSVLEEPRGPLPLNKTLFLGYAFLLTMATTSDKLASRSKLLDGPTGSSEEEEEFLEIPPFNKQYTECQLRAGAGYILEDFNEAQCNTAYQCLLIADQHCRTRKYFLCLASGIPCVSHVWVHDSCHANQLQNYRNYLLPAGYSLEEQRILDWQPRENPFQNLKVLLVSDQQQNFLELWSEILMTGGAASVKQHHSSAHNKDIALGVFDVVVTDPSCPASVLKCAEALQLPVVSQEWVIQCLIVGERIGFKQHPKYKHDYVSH
Consider C716A, for which the “effect of a mutation on the interaction” value was “decreasing interaction”.

Variants of B3 are the subject of the next experiment. Conditions: with smuf2_mouse Smurf2, A2A5Z6.
As for E499G, the “effect of a mutation on the interaction” value is “decreasing interaction”.

The variants in another experiment derive from B3. The settings on record: with smuf2_mouse Smurf2, A2A5Z6. The source holds these as a separate data set.
As for C501R, the “effect of a mutation on the interaction” value is recorded as “decreasing interaction”.

Variants of B4 are the subject of another experiment. The settings on record: with dvl1_mouse Dvl1, P51141.
Turning to C716A, the “effect of a mutation on the interaction” value is “decreasing interaction”.

A further experiment covers variants of B5. Conditions: with nkd2_mouse Nkd2, Q8VE28.
In the case of C716A, the “effect of a mutation on the interaction” value is “decreasing interaction”.

The next experiment covers variants of B6. Conditions: with ppm1b_human PPM1B.
Take C716A: the “effect of a mutation on the interaction” value is listed as “decreasing interaction”.

The variants in another experiment derive from B7. Conditions: with dvl2_human DVL2, O14641.
Turning to C716A, the “effect of a mutation on the interaction” value is recorded as “decreasing interaction”.
